Experimental data published in patent US20200262877A1, “ION CHANNEL-BINDING PEPTIDES AND METHODS OF USE THEREOF” (priority 2017, published 2020).

Assays:
5HT3a = molecular target: T1, 5HT3a (Homo sapiens, UniProt P46098); assay: Ion channel panel (IonWorks Barracuda): 5HT3a; format: cell-based
T1 construct: host or cells: HEK293 or CHO
T1 sequence (P46098 whole entry, looked up): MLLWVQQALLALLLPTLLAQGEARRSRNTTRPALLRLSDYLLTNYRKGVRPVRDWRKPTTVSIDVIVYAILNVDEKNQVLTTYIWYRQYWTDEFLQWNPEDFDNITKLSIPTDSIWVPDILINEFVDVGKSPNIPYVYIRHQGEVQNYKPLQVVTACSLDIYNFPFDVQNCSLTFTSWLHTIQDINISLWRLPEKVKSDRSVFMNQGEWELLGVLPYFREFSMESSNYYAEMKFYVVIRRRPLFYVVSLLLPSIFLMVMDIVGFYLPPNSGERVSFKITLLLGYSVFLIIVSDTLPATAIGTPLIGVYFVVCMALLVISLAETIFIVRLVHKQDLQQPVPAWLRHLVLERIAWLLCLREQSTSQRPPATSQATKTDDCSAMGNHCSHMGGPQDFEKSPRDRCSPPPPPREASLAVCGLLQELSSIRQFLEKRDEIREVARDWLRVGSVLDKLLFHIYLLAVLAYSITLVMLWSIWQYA
Protocol: (§1) This example describes a method for assaying ion channel activity in cells.
(§2) Peptides were screened in duplicate at final concentrations of 20 μM and 200 nM, as determined by amino acid analysis, and diluted into HEPES buffered physiological saline (HBPS). HEK293 or CHO cells from the American Type Culture Collection (ATCC) were transfected with the appropriate ion channel before use. HEK293 cells were grown in Dulbecco's Modified Eagle Medium/Nutrient Mixture F-12, and CHO cells were cultured in Ham's F-12 media. All cultures were supplemented with 10% fetal bovine serum, 100 U/ml penicillin G, 100 μg/ml streptomycin sulfate, and the appropriate selection antibiotics. Prior to use, cells were washed twice with Hank's Balanced Salt Solution, and treated with Accutase cell detachment solution (Sigma-Aldrich). Cells were then washed. Peptides and controls were incubated with cells for at least five minutes.
(§3) Percent inhibition was defined as: (1-(Ipeptide/Icontrol))×100%).
(§4) Percent values were calculated using the following formula: % activation=(IPeptide/Icontrol)×100%, where IPeptide is the current produced by co-application a peptide with agonist, and Icontrol refers to the current produced by stimulation in control. Control used for each ion channel is the reference compound matched to a particular channel, as illustrated in TABLE 10 below.

α3β4 = molecular target: T2, α3β4 (Homo sapiens, UniProt P30926+P32297); assay: Ion channel panel (IonWorks Barracuda): α3β4; format: cell-based; details: 100% = no change, <100% = inhibition
T2 construct: host or cells: HEK293 or CHO
Protocol: as §1, §2, §3, §4

α4β2 = molecular target: T3, α4β2 (Homo sapiens, UniProt P17787+P43681); assay: Ion channel panel (IonWorks Barracuda): α4β2; format: cell-based; details: 100% = no change, <100% = inhibition
T3 construct: host or cells: HEK293 or CHO
Protocol: as §1, §2, §3, §4

Cav2.1 = molecular target: T4, Cav2.1 (Homo sapiens, UniProt O00555); assay: cell-based; details: 100% = no change, <100% = inhibition
T4 construct: host or cells: HEK293 or CHO
Protocol: as §1, §2, §3, §4

Cav2.2 = molecular target: T5, Cav2.2 (Homo sapiens, UniProt Q00975); assay: cell-based; details: 100% = no change, <100% = inhibition
T5 construct: host or cells: HEK293 or CHO
Protocol: as §1, §2, §3, §4

Kv2.1 = molecular target: T6, Kv2.1 (Homo sapiens, UniProt Q14721); assay: cell-based; details: 100% = no change, <100% = inhibition
T6 construct: host or cells: HEK293 or CHO
Protocol: as §1, §2, §3, §4

GABA = assay: Ion channel panel (IonWorks Barracuda): GABA; format: cell-based; details: 100% = no change, <100% = inhibition
Protocol: as §1, §2, §3, §4

Nav1.5 = Nav1.5 (Homo sapiens, UniProt Q14524); assay: in vitro; details: 100% = no change; for Activity of Nav1.5 with peptide, expressed as a percentage of the reference compound: peptide at 0.2 μM; for Activity of Nav1.5 with peptide (percentage of the reference compound): peptide at 20 μM
Chain of Nav1.5 (Q14524 whole entry): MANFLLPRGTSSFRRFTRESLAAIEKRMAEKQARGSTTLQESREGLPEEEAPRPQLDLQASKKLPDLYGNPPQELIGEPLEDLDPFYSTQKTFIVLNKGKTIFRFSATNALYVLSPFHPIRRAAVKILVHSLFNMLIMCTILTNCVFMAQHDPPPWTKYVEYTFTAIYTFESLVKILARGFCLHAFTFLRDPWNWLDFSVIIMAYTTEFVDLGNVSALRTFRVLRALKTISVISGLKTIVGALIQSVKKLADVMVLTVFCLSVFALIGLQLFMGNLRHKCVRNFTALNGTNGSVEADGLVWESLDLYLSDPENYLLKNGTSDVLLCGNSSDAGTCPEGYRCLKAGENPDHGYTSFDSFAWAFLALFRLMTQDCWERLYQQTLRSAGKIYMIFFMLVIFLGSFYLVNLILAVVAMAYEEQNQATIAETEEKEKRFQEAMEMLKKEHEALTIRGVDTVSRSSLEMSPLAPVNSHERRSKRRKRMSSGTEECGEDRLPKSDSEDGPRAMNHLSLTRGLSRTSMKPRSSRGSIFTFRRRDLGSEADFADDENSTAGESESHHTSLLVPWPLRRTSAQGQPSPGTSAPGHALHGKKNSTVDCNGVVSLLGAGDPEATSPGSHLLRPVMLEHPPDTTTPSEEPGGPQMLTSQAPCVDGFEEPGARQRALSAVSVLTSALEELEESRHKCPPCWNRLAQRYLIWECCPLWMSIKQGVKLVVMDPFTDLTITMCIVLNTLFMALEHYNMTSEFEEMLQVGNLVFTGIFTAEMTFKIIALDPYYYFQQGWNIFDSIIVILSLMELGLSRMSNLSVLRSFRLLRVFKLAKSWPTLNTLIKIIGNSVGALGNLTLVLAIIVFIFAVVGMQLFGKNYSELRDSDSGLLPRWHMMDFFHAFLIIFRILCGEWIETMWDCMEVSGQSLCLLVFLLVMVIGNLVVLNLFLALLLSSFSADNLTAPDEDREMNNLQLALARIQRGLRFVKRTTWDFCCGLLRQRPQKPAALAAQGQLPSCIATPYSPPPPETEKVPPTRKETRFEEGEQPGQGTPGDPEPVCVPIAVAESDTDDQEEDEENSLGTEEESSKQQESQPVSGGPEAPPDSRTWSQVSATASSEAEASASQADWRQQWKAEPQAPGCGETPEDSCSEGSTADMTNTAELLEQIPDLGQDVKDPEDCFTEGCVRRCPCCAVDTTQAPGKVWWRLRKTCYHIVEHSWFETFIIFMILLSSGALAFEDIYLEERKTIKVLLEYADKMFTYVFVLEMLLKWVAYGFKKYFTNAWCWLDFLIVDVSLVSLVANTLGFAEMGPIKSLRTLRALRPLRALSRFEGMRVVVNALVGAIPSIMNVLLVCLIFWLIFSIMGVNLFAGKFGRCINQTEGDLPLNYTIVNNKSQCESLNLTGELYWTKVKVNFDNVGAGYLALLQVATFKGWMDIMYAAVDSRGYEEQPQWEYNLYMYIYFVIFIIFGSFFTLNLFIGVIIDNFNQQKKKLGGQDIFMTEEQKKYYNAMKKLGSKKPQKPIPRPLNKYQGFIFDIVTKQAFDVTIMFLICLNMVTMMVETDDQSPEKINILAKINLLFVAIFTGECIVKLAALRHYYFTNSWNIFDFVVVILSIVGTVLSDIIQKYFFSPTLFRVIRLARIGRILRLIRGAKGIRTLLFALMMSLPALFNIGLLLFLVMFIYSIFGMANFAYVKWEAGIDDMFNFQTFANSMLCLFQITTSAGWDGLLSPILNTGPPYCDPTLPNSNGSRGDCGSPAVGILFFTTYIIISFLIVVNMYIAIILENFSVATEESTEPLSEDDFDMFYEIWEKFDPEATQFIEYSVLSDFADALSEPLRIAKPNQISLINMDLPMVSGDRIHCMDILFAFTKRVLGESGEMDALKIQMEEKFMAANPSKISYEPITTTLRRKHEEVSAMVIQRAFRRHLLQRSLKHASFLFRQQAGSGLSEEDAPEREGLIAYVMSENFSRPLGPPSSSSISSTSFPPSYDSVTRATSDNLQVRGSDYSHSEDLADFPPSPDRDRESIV
Protocol: as §1, §2, §3, §4

hERG = hERG (Homo sapiens, UniProt Q12809); assay: in vitro; details: 100% = no change, <100% = inhibition
Protocol: as §1, §2, §3, §4

Kir2.1 = molecular target: T7, Kir2.1 (Homo sapiens, UniProt P63252); assay: Ion channel panel (IonWorks Barracuda): Kir2.1; format: cell-based; details: 100% = no change, <100% = inhibition
T7 construct: host or cells: HEK293 or CHO
T7 sequence (P63252 whole entry): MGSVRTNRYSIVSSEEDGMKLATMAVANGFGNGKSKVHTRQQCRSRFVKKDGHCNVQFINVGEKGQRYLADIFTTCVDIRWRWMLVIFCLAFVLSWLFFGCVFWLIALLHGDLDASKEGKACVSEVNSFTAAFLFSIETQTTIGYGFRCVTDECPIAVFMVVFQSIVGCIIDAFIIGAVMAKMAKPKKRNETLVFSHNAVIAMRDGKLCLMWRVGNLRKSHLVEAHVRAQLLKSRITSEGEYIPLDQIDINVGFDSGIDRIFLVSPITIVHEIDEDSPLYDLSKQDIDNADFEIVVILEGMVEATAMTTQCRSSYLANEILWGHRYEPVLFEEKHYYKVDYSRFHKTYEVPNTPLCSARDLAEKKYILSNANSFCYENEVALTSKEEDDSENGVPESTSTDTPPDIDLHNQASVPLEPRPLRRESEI
Protocol: as §1, §2, §3, §4

Kv1.1 = molecular target: T8, Kv1.1 (Homo sapiens, UniProt Q09470); assay: cell-based; format: cell-based; details: 100% = no change, <100% = inhibition
T8 construct: host or cells: HEK293 or CHO
Protocol: as §1, §2, §3, §4

Kv1.2 = molecular target: T9, Kv1.2 (Homo sapiens, UniProt P16389); assay: cell-based; format: cell-based; details: 100% = no change, <100% = inhibition
T9 construct: host or cells: HEK293 or CHO
Protocol: as §1, §2, §3, §4

Kv1.3 = molecular target: T10, Kv1.3 (Homo sapiens, UniProt P22001); assay: cell-based; format: cell-based; details: 100% = no change, <100% = inhibition
T10 construct: host or cells: HEK293 or CHO
T10 sequence (P22001 whole entry): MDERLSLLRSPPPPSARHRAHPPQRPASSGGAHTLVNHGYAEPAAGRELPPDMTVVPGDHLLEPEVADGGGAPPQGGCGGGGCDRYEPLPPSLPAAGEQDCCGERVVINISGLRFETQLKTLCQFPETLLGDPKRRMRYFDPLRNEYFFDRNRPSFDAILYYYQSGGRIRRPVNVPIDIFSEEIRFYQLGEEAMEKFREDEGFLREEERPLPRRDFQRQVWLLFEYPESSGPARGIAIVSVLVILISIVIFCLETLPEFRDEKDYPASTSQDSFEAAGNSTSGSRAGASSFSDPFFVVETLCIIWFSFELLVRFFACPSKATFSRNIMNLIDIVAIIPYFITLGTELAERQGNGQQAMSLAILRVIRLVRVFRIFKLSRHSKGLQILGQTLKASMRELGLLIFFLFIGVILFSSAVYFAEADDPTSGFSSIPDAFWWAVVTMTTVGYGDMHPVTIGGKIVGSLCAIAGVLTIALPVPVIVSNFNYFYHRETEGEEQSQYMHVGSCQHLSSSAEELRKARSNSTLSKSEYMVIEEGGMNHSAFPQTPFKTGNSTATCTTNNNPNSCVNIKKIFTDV
Protocol: as §1, §2, §3, §4

Nav1.7 = molecular target: T11, Nav1.7 (Homo sapiens, UniProt Q15858); assay: cell-based; format: cell-based; details: 100% = no change; for Activity of Nav1.7 with peptide, expressed as a percentage of the reference compound: peptide at 0.2 μM; for Activity of Nav1.7 with peptide (percentage of the reference compound): peptide at 20 μM
T11 construct: host or cells: HEK293 or CHO
T11 sequence (Q15858 whole entry): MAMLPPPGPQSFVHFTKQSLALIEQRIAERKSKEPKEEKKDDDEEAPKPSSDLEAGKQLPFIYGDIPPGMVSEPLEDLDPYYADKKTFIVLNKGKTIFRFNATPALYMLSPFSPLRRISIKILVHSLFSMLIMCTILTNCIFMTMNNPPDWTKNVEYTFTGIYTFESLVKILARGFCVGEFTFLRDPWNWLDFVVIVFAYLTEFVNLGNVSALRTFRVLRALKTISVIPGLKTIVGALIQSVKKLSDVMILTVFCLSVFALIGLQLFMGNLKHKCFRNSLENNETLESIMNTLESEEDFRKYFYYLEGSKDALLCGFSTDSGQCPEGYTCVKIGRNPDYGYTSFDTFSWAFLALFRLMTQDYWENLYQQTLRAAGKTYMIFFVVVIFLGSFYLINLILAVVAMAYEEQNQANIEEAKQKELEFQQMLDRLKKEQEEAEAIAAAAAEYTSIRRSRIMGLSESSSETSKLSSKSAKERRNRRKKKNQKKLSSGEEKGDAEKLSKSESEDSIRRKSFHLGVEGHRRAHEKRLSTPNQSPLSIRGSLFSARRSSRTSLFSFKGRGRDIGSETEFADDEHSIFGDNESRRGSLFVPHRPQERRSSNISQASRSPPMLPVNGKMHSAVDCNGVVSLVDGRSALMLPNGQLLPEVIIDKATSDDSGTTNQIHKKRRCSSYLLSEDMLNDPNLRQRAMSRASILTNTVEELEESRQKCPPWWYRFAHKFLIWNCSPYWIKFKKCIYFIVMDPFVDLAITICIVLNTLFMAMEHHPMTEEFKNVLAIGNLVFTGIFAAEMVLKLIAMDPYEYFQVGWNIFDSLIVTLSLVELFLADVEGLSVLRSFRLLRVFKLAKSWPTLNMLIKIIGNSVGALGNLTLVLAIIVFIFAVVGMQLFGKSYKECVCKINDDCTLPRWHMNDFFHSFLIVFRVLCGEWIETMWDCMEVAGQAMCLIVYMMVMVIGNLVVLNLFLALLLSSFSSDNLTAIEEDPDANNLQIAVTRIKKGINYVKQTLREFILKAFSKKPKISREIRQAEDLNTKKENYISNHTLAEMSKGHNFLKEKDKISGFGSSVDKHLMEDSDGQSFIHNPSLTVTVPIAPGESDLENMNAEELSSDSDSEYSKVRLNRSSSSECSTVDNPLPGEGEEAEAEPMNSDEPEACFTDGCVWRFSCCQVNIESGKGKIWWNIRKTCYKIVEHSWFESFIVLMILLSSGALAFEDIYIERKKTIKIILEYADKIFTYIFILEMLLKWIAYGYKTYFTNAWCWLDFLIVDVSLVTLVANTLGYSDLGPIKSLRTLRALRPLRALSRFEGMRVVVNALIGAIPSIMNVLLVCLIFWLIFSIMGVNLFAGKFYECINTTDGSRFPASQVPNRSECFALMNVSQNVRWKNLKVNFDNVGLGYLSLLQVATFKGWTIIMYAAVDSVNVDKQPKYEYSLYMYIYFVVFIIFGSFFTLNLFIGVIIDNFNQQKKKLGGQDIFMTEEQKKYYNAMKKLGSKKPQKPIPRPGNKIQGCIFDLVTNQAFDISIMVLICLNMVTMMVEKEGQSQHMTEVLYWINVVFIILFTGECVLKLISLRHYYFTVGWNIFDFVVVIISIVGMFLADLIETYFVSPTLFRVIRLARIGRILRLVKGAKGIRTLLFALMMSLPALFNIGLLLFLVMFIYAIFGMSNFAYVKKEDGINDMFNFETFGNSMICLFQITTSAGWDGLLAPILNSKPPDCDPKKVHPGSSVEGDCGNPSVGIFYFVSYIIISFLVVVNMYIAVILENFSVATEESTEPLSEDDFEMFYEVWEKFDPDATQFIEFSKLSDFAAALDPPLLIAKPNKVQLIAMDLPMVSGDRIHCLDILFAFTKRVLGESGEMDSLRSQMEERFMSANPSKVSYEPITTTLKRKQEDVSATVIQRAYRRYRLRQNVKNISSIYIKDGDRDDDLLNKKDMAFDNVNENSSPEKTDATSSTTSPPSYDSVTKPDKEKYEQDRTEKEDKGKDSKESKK
Protocol: as §1
as §2, with “Peptides were screened in duplicate at final concentrations of 20 μM and 200 nM, as determined by amino acid analysis, and diluted into HEPES buffered physiological saline (HBPS).” left out
as §3, §4

NR2A = molecular target: T12, NR2A (Homo sapiens, UniProt Q12879); assay: Ion channel panel (IonWorks Barracuda): NR2A; format: cell-based; details: 100% = no change, <100% = inhibition
T12 construct: host or cells: HEK293 or CHO
Protocol: as §1, §2, §3, §4

NR2B = molecular target: T13, NR2B (Homo sapiens, UniProt Q13224); assay: Ion channel panel (IonWorks Barracuda): NR2B; format: cell-based; details: 100% = no change, <100% = inhibition
T13 construct: host or cells: HEK293 or CHO
Protocol: as §1, §2, §3, §4

TRPA1 = molecular target: T14, TRPA1 (Homo sapiens, UniProt O75762); assay: Ion channel panel (IonWorks Barracuda): TRPA1; format: cell-based; details: 100% = no change, <100% = inhibition
T14 construct: host or cells: HEK293 or CHO
Protocol: as §1, §2, §3, §4

TRPV1 = molecular target: T15, TRPV1 (Homo sapiens, UniProt Q8NER1); assay: Ion channel panel (IonWorks Barracuda): TRPV1; format: cell-based; details: 100% = no change, <100% = inhibition
T15 construct: host or cells: HEK293 or CHO
Protocol: as §1, §2, §3, §4

[1] = first of two Nav1.5 columns (probably TP1)
[2] = second of two Nav1.5 columns (probably TP2)
[3] = first of two Nav1.7 columns (probably TP1)
[4] = second of two Nav1.7 columns (probably TP2)

With “9 (GSGCFGYKCDYYKGCCSGYVCSPTWKWCVRPGPGR) [compound 9]” as the substance, how does the “Activity of 5HT3a with peptide (percentage of the reference compound)” value (5HT3a) read?
Its value is 73%.

What about the “Activity of 5HT3a with peptide, expressed as a percentage of the reference compound” value (5HT3a) of the same substance?
Its value is 107%.

What about the “Activity of a3b4 with peptide, expressed as a percentage of the reference compound” value (α3β4; peptide at 0.2 μM) of the same substance?
Its value is 105%.

And the “Activity of a3b4 with peptide (percentage of the reference compound)” value (α3β4; peptide at 20 μM)?
Its value is 103%.

What about the “Activity of a4b2 with peptide, expressed as a percentage of the reference compound” value (α4β2; peptide at 0.2 μM) of the same substance?
The value was 96%.

And the “Activity of a4b2 with peptide (percentage of the reference compound)” value (α4β2; peptide at 20 μM)?
The value was 81%.

What about the “Activity of Cav2.1 with peptide, expressed as a percentage of the reference compound” value (Cav2.1; peptide at 0.2 μM) of the same substance?
Its value is 111%.

What about the “Activity of Cav2.1 with peptide (percentage of the reference compound)” value (Cav2.1; peptide at 20 μM) of the same substance?
The value was 108%.

What about the “Activity of Cav2.2 with peptide, expressed as a percentage of the reference compound” value (Cav2.2; peptide at 0.2 μM) of the same substance?
The value was 109%.

And the “Activity of Cav2.2 with peptide (percentage of the reference compound)” value (Cav2.2; peptide at 20 μM)?
The value was 102%.

What about the “Activity of Kv2.1 with peptide, expressed as a percentage of the reference compound” value (Kv2.1; peptide at 0.2 μM) of the same substance?
Its value is 112%.

What about the “Activity of Kv2.1 with peptide (percentage of the reference compound)” value (Kv2.1; peptide at 20 μM) of the same substance?
Its value is 99%.

What about the “Activity of GABA with peptide, expressed as a percentage of the reference compound” value (GABA; peptide at 0.2 μM) of the same substance?
The value was 99%.

What about the “Activity of GABA with peptide (percentage of the reference compound)” value (GABA; peptide at 20 μM) of the same substance?
The value was 98%.

What about the “Activity of Nav1.5 with peptide, expressed as a percentage of the reference compound” value (Nav1.5; [1]) of the same substance?
Its value is 104%.

What about the “Activity of Nav1.5 with peptide, expressed as a percentage of the reference compound” value (Nav1.5; [2]) of the same substance?
The value was 103%.

What about the “Activity of Nav1.5 with peptide (percentage of the reference compound)” value (Nav1.5; [1]) of the same substance?
The value was 109%.

And the “Activity of Nav1.5 with peptide (percentage of the reference compound)” value (Nav1.5; [2])?
Its value is 110%.

And the “Activity of hERG with peptide, expressed as a percentage of the reference compound” value (hERG; peptide at 0.2 μM)?
The value was 104%.

And the “Activity of hERG with peptide (percentage of the reference compound)” value (hERG; peptide at 20 μM)?
Its value is 98%.

And the “Activity of Kir2.1 with peptide, expressed as a percentage of the reference compound” value (Kir2.1; peptide at 0.2 μM)?
Its value is 105%.

What about the “Activity of Kir2.1 with peptide (percentage of the reference compound)” value (Kir2.1; peptide at 20 μM) of the same substance?
Its value is 103%.

And the “Activity of Kv1.1 with peptide, expressed as a percentage of the reference compound” value (Kv1.1; peptide at 0.2 μM)?
Its value is 103%.

And the “Activity of Kv1.1 with peptide (percentage of the reference compound)” value (Kv1.1; peptide at 20 μM)?
The value was 97%.

And the “Activity of Kv1.2 with peptide, expressed as a percentage of the reference compound” value (Kv1.2; peptide at 0.2 μM)?
Its value is 120%.

What about the “Activity of Kv1.2 with peptide (percentage of the reference compound)” value (Kv1.2; peptide at 20 μM) of the same substance?
Its value is 104%.

And the “Activity of Kv1.3 with peptide, expressed as a percentage of the reference compound” value (Kv1.3; peptide at 0.2 μM)?
Its value is 107%.

What about the “Activity of Kv1.3 with peptide (percentage of the reference compound)” value (Kv1.3; peptide at 20 μM) of the same substance?
Its value is 89%.

What about the “Activity of Nav1.7 with peptide, expressed as a percentage of the reference compound” value (Nav1.7; [3]) of the same substance?
Its value is 108%.

What about the “Activity of Nav1.7 with peptide, expressed as a percentage of the reference compound” value (Nav1.7; [4]) of the same substance?
Its value is 110%.

And the “Activity of Nav1.7 with peptide (percentage of the reference compound)” value (Nav1.7; [3])?
Its value is 94%.

What about the “Activity of Nav1.7 with peptide (percentage of the reference compound)” value (Nav1.7; [4]) of the same substance?
The value was 114%.

What about the “Activity of NR2A with peptide, expressed as a percentage of the reference compound” value (NR2A; peptide at 0.2 μM) of the same substance?
The value was 89%.

What about the “Activity of NR2A with peptide (percentage of the reference compound)” value (NR2A; peptide at 20 μM) of the same substance?
The value was 87%.

What about the “Activity of NR2B with peptide, expressed as a percentage of the reference compound” value (NR2B; peptide at 0.2 μM) of the same substance?
Its value is 77%.

What about the “Activity of NR2B with peptide (percentage of the reference compound)” value (NR2B; peptide at 20 μM) of the same substance?
Its value is 85%.

What about the “Activity of TRPA1 with peptide, expressed as a percentage of the reference compound” value (TRPA1; peptide at 0.2 μM) of the same substance?
The value was 131%.

And the “Activity of TRPA1 with peptide (percentage of the reference compound)” value (TRPA1; peptide at 20 μM)?
The value was 112%.

And the “Activity of TRPV1 with peptide, expressed as a percentage of the reference compound” value (TRPV1; peptide at 0.2 μM)?
Its value is 112%.

And the “Activity of TRPV1 with peptide (percentage of the reference compound)” value (TRPV1; peptide at 20 μM)?
The value was 79%.
